Measurements reported in US20030186841.

Assays:
[1] = tested on: E2C(Sp1) six-finger (synthetic); test: EMSA
[2] = tested on: E2C(Zif) six-finger (synthetic); test: EMSA
[3] = target: pmGAA (Zif268-C7 finger 2 variant) finger 2 helix -2 to 6 = SQSSNLVR in Zif268-C7 (synthetic) (UniProt P08046); test: EMSA; settings: [none]
[4] = target: C7-PBD-VP64 (synthetic/human PR) (UniProt P08046); test: cell_activity; settings: +RU486
E2C-HS2(Zif) (synthetic) = test: EMSA
E2C-HS2(Sp1) (synthetic) = test: EMSA
E2C-HS2(F2) (synthetic) = test: EMSA; settings: ELISA binding good (Table 11)
[5] = target: pmGCG (Zif268-C7 finger 2 variant) finger 2 helix -2 to 6 = SRSDDLVR in Zif268-C7 (synthetic) (UniProt P08046); test: EMSA
[6] = tested on: B3(F2) three-finger protein (synthetic); test: EMSA
[7] = target: pGTA (Zif268-C7 finger 2 variant) finger 2 helix -2 to 6 = SQSSSLVR in Zif268-C7 (synthetic) (UniProt P08046); test: EMSA
E2E-PBD-VP64 (synthetic) = test: cell_activity; settings: +RU486; basal 18259, control 17209
[8] = target: pGCA (Zif268-C7 finger 2 variant) finger 2 helix -2 to 6 = SQSGDLRR in Zif268-C7 (synthetic) (UniProt P08046); test: EMSA; settings: [none]
[9] = target: pmGCT (Zif268-C7 finger 2 variant) finger 2 helix -2 to 6 = STSGELVR in Zif268-C7 (synthetic) (UniProt P08046); test: EMSA; settings: [none]
[10] = target: pmGGT (Zif268-C7 finger 2 variant) finger 2 helix -2 to 6 = STSGHLVR in Zif268-C7 (synthetic) (UniProt P08046); test: EMSA; settings: [7-9,26-28]
[11] = target: pGCC (Zif268-C7 finger 2 variant) finger 2 helix -2 to 6 = SDCRDLAR in Zif268-C7 (synthetic) (UniProt P08046); test: EMSA; settings: [none]
[12] = target: pGTC (Zif268-C7 finger 2 variant) finger 2 helix -2 to 6 = SDPGALVR in Zif268-C7 (synthetic) (UniProt P08046); test: EMSA; settings: [none]
[13] = target: pmGAC (Zif268-C7 finger 2 variant) finger 2 helix -2 to 6 = SDPGNLVR in Zif268-C7 (synthetic) (UniProt P08046); test: EMSA; settings: [none]
[14] = target: pGGA (Zif268-C7 finger 2 variant) finger 2 helix -2 to 6 = SQRAHLER in Zif268-C7 (synthetic) (UniProt P08046); test: EMSA; settings: [7-9,26-28]
[15] = tested on: E2F-PBD-VP64 heterodimer (synthetic/human PR); test: cell_activity; settings: basal; 54986 with RU486; pcDNA control 17209
[16] = target: pmGGC (Zif268-C7 finger 2 variant) finger 2 helix -2 to 6 = SDPGHLVR in Zif268-C7 (synthetic) (UniProt P08046); test: EMSA; settings: [7-9,26-28]
[17] = tested on: E2(F2) three-finger protein (synthetic); test: EMSA
[18] = tested on: E2C(Sp1)-VP16 (synthetic); test: cell_activity; settings: HeLa luciferase
[19] = target: pmGAG (Zif268-C7 finger 2 variant) finger 2 helix -2 to 6 = SRSDNLVR in Zif268-C7 (synthetic) (UniProt P08046); test: EMSA; settings: [7-9,26-28]
[20] = target: pGGG (Zif268-C7 finger 2 variant) finger 2 helix -2 to 6 = SRSDHLTR in Zif268-C7 (synthetic) (UniProt P08046); test: EMSA; settings: [7-9,26-28]
[21] = target: pmGGG (Zif268-C7 finger 2 variant) finger 2 helix -2 to 6 = SRSDKLVR in Zif268-C7 (synthetic) (UniProt P08046); test: EMSA; settings: [7-9,26-28]
[22] = target: pmGTG (Zif268-C7 finger 2 variant) finger 2 helix -2 to 6 = SRSDELVR in Zif268-C7 (synthetic) (UniProt P08046); test: EMSA; settings: [7-9,26-28]
[23] = target: pGTG (Zif268-C7 finger 2 variant) finger 2 helix -2 to 6 = SRKDSLVR in Zif268-C7 (synthetic) (UniProt P08046); test: EMSA; settings: [7-9,26-28]
E2C-HS1(F2) (synthetic) = test: EMSA; settings: ELISA binding good (Table 11)
E2C-HS1(Zif) (synthetic) = test: EMSA
E2C-HS1(Sp1) (synthetic) = test: EMSA
[24] = tested on: E2C-ER//ER-VP64 heterodimer (synthetic); test: cell_activity; settings: tamoxifen-dependent; maximum at optimised partner ratio
[25] = tested on: SID-E2C(Sp1) six-finger repressor (synthetic); test: cell_activity; settings: approximately; HeLa luciferase
[26] = tested on: E2C-ER//ER-KRAB heterodimer (synthetic); test: cell_activity; settings: tamoxifen-dependent; partner ratio 1/10
[27] = tested on: E2C(Sp1) six-finger, no effector domain (synthetic); test: cell_activity; settings: approximately; HeLa luciferase, no effector domain
[28] = tested on: E2C(Sp1)-ERD six-finger repressor (synthetic); test: cell_activity; settings: approximately; HeLa luciferase
[29] = target: pmGTT (Zif268-C7 finger 2 variant) finger 2 helix -2 to 6 = STSGSLVR in Zif268-C7 (synthetic) (UniProt P08046); test: EMSA; settings: [none]
[30] = tested on: B3C2(Sp1)-VP64 (synthetic); test: cell_activity; settings: HeLa luciferase
[31] = tested on: E2C(F2) six-finger (synthetic); test: EMSA
[32] = target: VP16-C7-ER (synthetic/mouse ER) (UniProt P19785); test: cell_activity; settings: 4-OH tamoxifen
[33] = tested on: VP16-C7-PR (synthetic/human PR); test: cell_activity; settings: RU486
[34] = tested on: B3B(Sp1)-VP64 (synthetic); test: cell_activity; settings: HeLa luciferase
[35] = tested on: C5(F2) three-finger protein (synthetic); test: EMSA
[36] = target: C7 (Zif268-C7) (synthetic) (UniProt P08046); test: EMSA; settings: [none]
[37] = target: pGAT (Zif268-C7 finger 2 variant) finger 2 helix -2 to 6 = STSGNLVR in Zif268-C7 (synthetic) (UniProt P08046); test: EMSA; settings: [none]

## GGGGCCGGAAGTCTGAATG (double strand) [e2c-muths2]
[1]
  Kd: 100 nM
[2]
  Kd: 200 nM

## GGACGCTTCCGCGGGTTTTCCCGCGGAAGCGTCC [F2 site GAA]
[3]
  Kd: 0.5 nM

## C7 inverted repeat, 0 spacer, TATA reporter
[4]; 2921 without
  activity (luciferase units): 10800

## GCCGCAGTGG (double strand) [e2c-hs2]
E2C-HS2(Zif) (synthetic)
  Kd: 75 nM
E2C-HS2(Sp1) (synthetic)
  Kd: 25 nM
E2C-HS2(F2) (synthetic)
  Kd: 70 nM

## C7 direct repeat, 2 bp spacer, TATA reporter
[4]; 3417 without
  activity (luciferase units): 8170

## GGACGCCGCCGCGGGTTTTCCCGCGGCGGCGTCC [F2 site GCG]
[5]; [none]
  Kd: 9 nM

## GGAGGGGAGG (double strand) [b3]
[6]
  Kd: 4 nM

## GGACGCTACCGCGGGTTTTCCCGCGGTAGCGTCC [F2 site GTA]
[7]; [none]
  Kd: 25 nM

## GCCGGAGCCATGGGGCCGGAGCC (double strand) [E2E site in erbB-2 promoter reporter]
E2E-PBD-VP64 (synthetic)
  activity (luciferase units): 15900

## GGACGCAGCCGCGGGTTTTCCCGCGGCTGCGTCC [F2 site GCT]
[8]
  Kd: 10 nM
[9]
  Kd: 65 nM

## GGACGCACCCGCGGGTTTTCCCGCGGGTGCGTCC [F2 site GGT]
[10]
  Kd: 15 nM

## GGACGCGGCCGCGGGTTTTCCCGCGGCCGCGTCC [F2 site GCC]
[11]
  Kd: 80 nM
[12]
  Kd: > 4400 nM
[13]
  Kd: 90 nM

## GGACGCTCCCGCGGGTTTTCCCGCGGGAGCGTCC [F2 site GGA]
[14]
  Kd: 3 nM

## C7 inverted repeat, 3 bp spacer, TATA reporter
[4]; 7132 without
  activity (luciferase units): 12800

## C7 everted repeat, 5 bp spacer, TATA reporter
[4]; 6892 without
  activity (luciferase units): 13100

## C7 inverted repeat, 1 bp spacer, TATA reporter
[4]; 4342 without
  activity (luciferase units): 9530

## GGGGCCGGAGCCGCAGTGA (double strand) [e2c-a]
[1]
  Kd: 0.75 nM
[2]
  Kd: 2.3 nM

## GAGGAGGGCTGCTTGAGGAAGTA (double strand) [erbB-2 promoter reporter, E2F dimer site]
[15]
  activity (luciferase units): 61400

## C7 everted repeat, 1 bp spacer, TATA reporter
[4]; 6029 without
  activity (luciferase units): 13600

## GGACGCGTCCGCGGGTTTTCCCGCGGACGCGTCC [F2 site GAC]
[13]
  Kd: 3 nM

## C7 inverted repeat, 4 bp spacer, TATA reporter
[4]; 3502 without
  activity (luciferase units): 8860

## GGACGCGCCCGCGGGTTTTCCCGCGGGCGCGTCC [F2 site GGC]
[16]
  Kd: 40 nM
[10]
  Kd: > 2400 nM

## GGGGGCGAGG (double strand) [e2]
[17]
  Kd: 3 nM

## C7 inverted repeat, 5 bp spacer, TATA reporter
[4]; 4704 without
  activity (luciferase units): 12400

## GGACGCGACCGCGGGTTTTCCCGCGGTCGCGTCC [F2 site GTC]
[12]
  Kd: 40 nM

## GGGGCCGGAGCCGCAGTG (double strand) [erbB-2 promoter reporter, E2C site]
[18]
  activity (fold activation): 5

## GGACGCCCCCGCGGGTTTTCCCGCGGGGGCGTCC [F2 site GGG]
[19]
  Kd: 45 nM
[20]
  Kd: 0.4 nM
[21]
  Kd: 6 nM

## C7 everted repeat, 3 bp spacer, TATA reporter
[4]; 9670 without
  activity (luciferase units): 21500

## C7 direct repeat, 3 bp spacer, TATA reporter
[4]; 3269 without
  activity (luciferase units): 5140

## GGACGCCACCGCGGGTTTTCCCGCGGTGGCGTCC [F2 site GTG]
[22]
  Kd: 15 nM
[21]
  Kd: > 1400 nM
[23]
  Kd: 3 nM
[7]; [7-9,26-28]
  Kd: > 1000 nM

## GGACGCCTCCGCGGGTTTTCCCGCGGAGGCGTCC [F2 site GAG]
[22]
  Kd: 30 nM
[19]
  Kd: 1 nM
[5]; [7-9,26-28]
  Kd: 6 nM

## C7 inverted repeat, 2 bp spacer, TATA reporter
[4]; 6964 without
  activity (luciferase units): 19200

## AGTCTGAATGCCGCAGTGG (double strand) [e2c-muths1]
[1]
  Kd: 65 nM
[2]
  Kd: 200 nM

## GGGGCCGGAG (double strand) [e2c-hs1]
E2C-HS1(F2) (synthetic)
  Kd: 45 nM
E2C-HS1(Zif) (synthetic)
  Kd: 70 nM
E2C-HS1(Sp1) (synthetic)
  Kd: 35 nM

## C7 direct repeat, 4 bp spacer, TATA reporter
[4]; 3966 without
  activity (luciferase units): 6940

## GGACGCTGCCGCGGGTTTTCCCGCGGCAGCGTCC [F2 site GCA]
[8]
  Kd: 2 nM

## GGGGCCGGAGCCGCAGTG (double strand) [E2C site in erbB-2 promoter reporter]
[24]
  activity (fold activation): 5.3
[25]
  activity: 80 % repression
[26]
  activity (fold repression): 2.9
[27]
  activity: 30 % repression
[28]
  activity: 50 % repression

## GGACGCAACCGCGGGTTTTCCCGCGGTTGCGTCC [F2 site GTT]
[29]
  Kd: 5 nM

## C7 everted repeat, 2 bp spacer, TATA reporter
[4]; 7880 without
  activity (luciferase units): 20800

## C7 direct repeat, 5 bp spacer, TATA reporter
[4]; 2597 without
  activity (luciferase units): 5460

## C7 everted repeat, 4 bp spacer, TATA reporter
[4]; 6974 without
  activity (luciferase units): 8900

## GGAGGGGACGCGGTGGGT (double strand) [integrin beta3 promoter reporter, b3c2 site]
[30]
  activity (fold activation): 22

## GGGGCCGGAGCCGCAGTGG (double strand) [e2c-g]
[1]
  Kd: 0.5 nM
[2]
  Kd: 1.6 nM
[31]
  Kd: 25 nM

## 10xC7 pGL3prom reporter
[32]
  activity (fold induction): 43
[33]
  activity (fold induction): 26

## C7 direct repeat, 1 bp spacer, TATA reporter
[4]; 3383 without
  activity (luciferase units): 8200

## GCCTGAGAGGGAGCGGTG (double strand) [integrin beta3 promoter reporter, b3b site]
[34]
  activity (fold activation): 12

## GGAGGCGGGG (double strand) [c5]
[35]
  Kd: 30 nM

## C7 direct repeat, 0 spacer, TATA reporter
[4]; 4081 without
  activity (luciferase units): 20000

## GGACGCCCACGCGGGTTTTCCCGCGTGGGCGTCC [F2 site TGG]
[36]
  Kd: 0.5 nM

## C7 everted repeat, 0 spacer, TATA reporter
[4]; 8750 without
  activity (luciferase units): 17400

## GGACGCATCCGCGGGTTTTCCCGCGGATGCGTCC [F2 site GAT]
[37]
  Kd: 3 nM
